Source: patent publication US20130203116, “EXPRESSION AND PURIFICATION OF FUSION PROTEIN WITH MULTIPLE MBP TAGS” (The Regents of the University of California 1111 Franklin …, published 2013)

Tests used:
[1] = biological target: T1, BRCA2 (2XMBP-BRCA2, full length) (Homo sapiens, UniProt P51587 P51587:1-3418); test: EMSA; strongly preferred over dsDNA; 1 mM MgCl2, 2 mM CaCl2, 2 mM ATP, 37 C; conditions: tags: N-terminal 2xMBP with PreScission site, expressed in human 293T cells, amylose + HiTrap Q
T1 sequence (P51587 whole entry, one chain of several): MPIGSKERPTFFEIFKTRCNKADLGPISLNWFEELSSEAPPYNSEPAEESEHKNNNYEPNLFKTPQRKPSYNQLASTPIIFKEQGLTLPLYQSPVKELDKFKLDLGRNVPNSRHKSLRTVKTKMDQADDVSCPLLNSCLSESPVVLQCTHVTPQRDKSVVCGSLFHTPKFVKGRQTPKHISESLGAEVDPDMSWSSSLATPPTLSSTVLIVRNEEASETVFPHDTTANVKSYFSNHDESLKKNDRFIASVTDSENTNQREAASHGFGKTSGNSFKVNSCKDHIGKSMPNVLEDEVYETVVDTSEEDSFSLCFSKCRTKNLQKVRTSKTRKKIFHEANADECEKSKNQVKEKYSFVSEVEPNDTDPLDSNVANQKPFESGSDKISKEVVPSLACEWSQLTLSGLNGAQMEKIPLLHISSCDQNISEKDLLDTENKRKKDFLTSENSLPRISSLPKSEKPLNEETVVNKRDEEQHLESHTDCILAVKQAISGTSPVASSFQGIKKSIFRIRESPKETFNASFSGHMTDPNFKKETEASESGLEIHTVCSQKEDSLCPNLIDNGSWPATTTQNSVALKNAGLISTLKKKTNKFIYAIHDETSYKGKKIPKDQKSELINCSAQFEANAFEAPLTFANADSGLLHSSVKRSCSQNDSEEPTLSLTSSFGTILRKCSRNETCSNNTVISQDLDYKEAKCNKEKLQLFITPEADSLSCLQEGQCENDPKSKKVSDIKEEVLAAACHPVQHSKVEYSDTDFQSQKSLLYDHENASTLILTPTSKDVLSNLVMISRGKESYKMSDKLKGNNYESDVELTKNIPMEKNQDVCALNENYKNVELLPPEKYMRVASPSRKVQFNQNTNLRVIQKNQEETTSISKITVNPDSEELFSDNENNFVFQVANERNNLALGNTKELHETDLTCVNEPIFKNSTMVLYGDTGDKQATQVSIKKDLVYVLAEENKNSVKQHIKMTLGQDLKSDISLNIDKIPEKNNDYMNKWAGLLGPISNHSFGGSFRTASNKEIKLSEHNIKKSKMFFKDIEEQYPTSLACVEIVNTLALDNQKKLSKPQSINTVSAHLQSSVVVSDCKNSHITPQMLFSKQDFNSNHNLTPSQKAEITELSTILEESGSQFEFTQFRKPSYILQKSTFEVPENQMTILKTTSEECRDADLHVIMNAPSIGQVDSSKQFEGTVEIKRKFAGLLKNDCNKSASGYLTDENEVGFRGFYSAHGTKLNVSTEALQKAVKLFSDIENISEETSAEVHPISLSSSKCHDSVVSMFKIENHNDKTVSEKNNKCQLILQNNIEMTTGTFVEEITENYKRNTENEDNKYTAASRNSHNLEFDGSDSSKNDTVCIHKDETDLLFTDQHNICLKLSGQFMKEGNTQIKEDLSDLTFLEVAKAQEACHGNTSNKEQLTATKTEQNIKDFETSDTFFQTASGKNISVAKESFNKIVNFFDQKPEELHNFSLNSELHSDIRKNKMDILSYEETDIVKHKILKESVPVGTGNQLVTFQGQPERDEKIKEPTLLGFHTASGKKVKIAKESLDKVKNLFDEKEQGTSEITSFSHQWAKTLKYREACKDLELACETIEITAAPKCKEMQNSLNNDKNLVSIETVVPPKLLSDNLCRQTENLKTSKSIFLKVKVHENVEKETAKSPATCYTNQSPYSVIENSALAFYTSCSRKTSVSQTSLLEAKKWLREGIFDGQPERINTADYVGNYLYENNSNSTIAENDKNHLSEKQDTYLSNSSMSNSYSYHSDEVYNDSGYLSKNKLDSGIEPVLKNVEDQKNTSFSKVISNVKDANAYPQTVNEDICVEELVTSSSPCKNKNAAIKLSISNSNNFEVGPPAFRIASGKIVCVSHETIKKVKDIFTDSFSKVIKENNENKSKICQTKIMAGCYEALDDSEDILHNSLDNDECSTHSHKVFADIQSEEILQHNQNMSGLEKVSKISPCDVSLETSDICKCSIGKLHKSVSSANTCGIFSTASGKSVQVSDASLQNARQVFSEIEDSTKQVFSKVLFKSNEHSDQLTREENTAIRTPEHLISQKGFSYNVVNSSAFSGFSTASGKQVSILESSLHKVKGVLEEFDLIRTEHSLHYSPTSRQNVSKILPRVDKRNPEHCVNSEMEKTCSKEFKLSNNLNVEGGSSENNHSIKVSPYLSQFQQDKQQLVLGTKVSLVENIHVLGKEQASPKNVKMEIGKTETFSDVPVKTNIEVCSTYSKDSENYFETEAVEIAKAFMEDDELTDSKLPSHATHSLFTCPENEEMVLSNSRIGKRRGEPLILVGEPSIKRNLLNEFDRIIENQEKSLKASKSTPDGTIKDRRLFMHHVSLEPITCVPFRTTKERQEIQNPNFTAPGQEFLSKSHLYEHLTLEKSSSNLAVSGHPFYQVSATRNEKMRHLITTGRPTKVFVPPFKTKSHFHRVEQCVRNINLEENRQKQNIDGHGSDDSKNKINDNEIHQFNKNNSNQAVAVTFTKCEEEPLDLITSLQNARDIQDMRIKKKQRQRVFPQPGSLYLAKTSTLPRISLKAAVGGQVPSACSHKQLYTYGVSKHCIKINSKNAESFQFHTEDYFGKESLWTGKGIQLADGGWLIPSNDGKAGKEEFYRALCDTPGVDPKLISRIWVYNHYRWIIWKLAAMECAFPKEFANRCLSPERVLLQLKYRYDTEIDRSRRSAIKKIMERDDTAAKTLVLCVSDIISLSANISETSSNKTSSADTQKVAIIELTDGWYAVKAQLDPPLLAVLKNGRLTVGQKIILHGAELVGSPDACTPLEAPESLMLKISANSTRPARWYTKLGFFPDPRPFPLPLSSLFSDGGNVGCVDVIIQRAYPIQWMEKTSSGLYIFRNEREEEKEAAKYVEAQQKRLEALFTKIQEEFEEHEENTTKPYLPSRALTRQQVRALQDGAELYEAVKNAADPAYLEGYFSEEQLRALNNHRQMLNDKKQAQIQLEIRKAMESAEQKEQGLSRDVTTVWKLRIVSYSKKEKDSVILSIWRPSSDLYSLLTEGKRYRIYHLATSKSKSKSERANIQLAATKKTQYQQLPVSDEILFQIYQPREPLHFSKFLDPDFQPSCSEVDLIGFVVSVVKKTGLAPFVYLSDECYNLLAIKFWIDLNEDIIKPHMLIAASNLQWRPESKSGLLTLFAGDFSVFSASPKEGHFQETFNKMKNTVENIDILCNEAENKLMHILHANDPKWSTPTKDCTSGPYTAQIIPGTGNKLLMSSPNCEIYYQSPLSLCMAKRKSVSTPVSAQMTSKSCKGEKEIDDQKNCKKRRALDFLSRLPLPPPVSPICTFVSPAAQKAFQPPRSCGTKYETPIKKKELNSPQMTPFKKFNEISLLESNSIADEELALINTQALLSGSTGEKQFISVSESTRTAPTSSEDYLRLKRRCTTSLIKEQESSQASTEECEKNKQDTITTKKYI

[2] = biological target: T1, BRCA2 (2XMBP-BRCA2, full length); test: EMSA; strongly preferred over dsDNA; slight preference over ssDNA at high salt (0.5-1 M NaCl); 1 mM MgCl2, 2 mM CaCl2, 2 mM ATP, 37 C; conditions: tags: N-terminal 2xMBP with PreScission site; expressed in human 293T cells, amylose + HiTrap Q; label: 5'-32P on 167-mer (EMSA); 42 bp duplex with 125 nt 3' ssDNA overhang

B1: 5' tailed DNA (RJ-5'TAIL-167-mer/RJ-PHIX-42-1) (mixed)
DNA 1: ATTTATTCTATTCCCTTTATTTTCTCTGTTTATTCATTTACTTATTTTGTATTAATTTCCTATATTTTTTACTTGTATTTCTTATTCATTTACTTATTTTGTATTATCCTTATTTATATCCTTTCTGCTTTATCAAGATAATTTTTCGACTCATCAGAAATATCCG
DNA 2: CGGATATTTCTGATGAGTCGAAAAATTATCTTGATAAAGCAG
B1: binds ([1]; label: 5'-32P on 167-mer (EMSA), 42 bp duplex with 5' ssDNA overhang).

B2: RJ-167-mer ssDNA (ssDNA)
DNA: CTGCTTTATCAAGATAATTTTTCGACTCATCAGAAATATCCGTTTCCTATATTTATTCCTATTATGTTTTATTCATTTACTTATTCTTTATGTTCATTTTTTATATCCTTTACTTTATTTTCTCTGTTTATTCATTTACTTATTTTGTATTATCCTTATCTTATTTA
B2: binds ([1]; label: 5'-32P (EMSA)).

B3: 3' tailed DNA (RJ-167-mer/RJ-PHIX-42-1) (mixed)
DNA 1: B2 DNA
DNA 2: B1 DNA 2
B3: binds [2].
